Results: PMC2683827

Biological target: paclitaxel stabilized microtubules (UniProt P02550)
Test: co-sedimentation; tau 0-10 μM mixed with paclitaxel stabilized microtubules (1.6 μM tubulin dimers, 20 μM paclitaxel) in 80 mM PIPES pH 7.0, 2 mM MgCl2, 0.5 mM EGTA; 30 min at room temperature; 100,000 x g for 5 min at 23°C; tau in the pellet measured by gel densitometry or western blot; noncooperative single-site fit; unphosphorylated and GSK-3β phosphorylated tau

UniProt P02550, sequence (P02550 whole entry, looked up): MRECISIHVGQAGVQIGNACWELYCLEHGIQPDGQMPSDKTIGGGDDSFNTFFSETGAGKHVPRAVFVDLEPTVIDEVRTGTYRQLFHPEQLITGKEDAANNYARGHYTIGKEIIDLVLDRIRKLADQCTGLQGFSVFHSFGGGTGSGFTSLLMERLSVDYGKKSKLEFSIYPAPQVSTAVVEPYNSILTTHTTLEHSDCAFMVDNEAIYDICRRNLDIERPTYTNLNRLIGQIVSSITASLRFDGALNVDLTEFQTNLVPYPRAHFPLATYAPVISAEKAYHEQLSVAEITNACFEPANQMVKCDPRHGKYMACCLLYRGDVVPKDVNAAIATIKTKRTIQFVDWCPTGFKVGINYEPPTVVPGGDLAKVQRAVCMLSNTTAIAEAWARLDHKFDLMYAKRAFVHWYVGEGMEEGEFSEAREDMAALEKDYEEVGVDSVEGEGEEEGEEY

Substance: GSK-3β phosphorylated tau isoform 1N4R (from UniProt P10636-7 1-412) (natural protein)
- fold decrease in microtubule affinity upon GSK-3β phosphorylation, against the unphosphorylated isoform: 3 fold

Substance: GSK-3β phosphorylated tau isoform 1N3R (from UniProt P10636-4 1-381) (natural protein)
- fold decrease in microtubule affinity upon GSK-3β phosphorylation, against the unphosphorylated isoform: 3 fold
